Reference: the nanobody polyreactivity screen of Harvey et al. (2022)

Assay: yeast display, Sf9 membrane polyspecificity reagent, FACS + sequencing; frameworks hold sequencing errors
Summary of the method: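 Genes from sorted yeast were amplified by colony PCR, read by MiSeq 2 × 250 sequencing and filtered on CDR length. These cells carried a synthetic nanobody library in Saccharomyces cerevisiae BJ5465 and were sorted by FACS into low and high (top ~1%) gates on anti-HA and streptavidin fluorescence. Polyreactivity is labelled according to the gate of origin.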

Row | Sequence | polyreactivity (PSR sort gate)
1 | QVQLVESGGGLVQAGGSLRLSCAASGIIFRSYTMGWYRQAPGKERELVASITRSGGITYYADSVKGRFTISRDNAKNTVYLQMNSLKPEDTAVYYCAARHRYYYQYRSDYWGQGTQVSVSS | high polyreactivity
2 | QDQLVESGGGLDQAGGSLRLSCAASGFTFIRYAMGWYRQAPGKERELVATITRSGGSTYYADSVKGRFTISRDHAKNTVYLQMNSLKPEDTAVYYCAKRGTLGSYYYWGQGTQVTVSS | high polyreactivity
3 | QVQLVESGGGLVQAGGSLRLSCAASGSTFDYYDMGWYRQAPGKERELVAAISYSGTSTYYADSVKGRFTISRDNAKNTVYLQMNSLKPEDTAVYYCAKVFPDWYWYDYWGQGTQVTVSS | low polyreactivity
4 | QVELVESGGGLVQAGGSLRLSCAASGFIFEKYTMGWYRQATGKETELVADITWNGGSTYYADSVKGRFTISRDNAKNTVYLQMNSLKPEDNAVYYCAARVGWNQRRYDYWGQGTQVTVSS | low polyreactivity
5 | QVQLVESGGGLVQAGGSLRLSCAASGRTFSAYTMGWYRQAPGKERELVAAITSGTSTYYADSVKGRFTISRDNAKNTVYLQMNSLKPEDTAVYYCNARDSGRWWHIGQSGEDYWGQGTQVTVSS | low polyreactivity
6 | QVQLVESGGGLVQAGGSLRLSCAASGRIFGGNAMGGYRQAPGKERELVAAITTGGSTNYADSVKGRFTISRDNAKNTVYLQMNSLKPEDTAVYYCNKRQSARLYGDTYDYWGQGTQVTVSS | low polyreactivity
7 | QVQLVESGRGLVQAGVSLRLSCAASGSIFEQYAMGWYRQAPGKERELVAAITISGGGTFYADSVKGRFTISRDNAKNTVYLQMNSLKPEDTAVYYCAKRGYYFWSRKYGYWGQGTQVTVSS | low polyreactivity
8 | QVQLVESGGGLVQAGGSLRLSCAASGRIFDLYAMRWYRQAPGKESELVAAISIRGGSTYYADSVKGRFTISRDNAKNTVYLQMNSLKPEDTAVYYCAAEGPWLSDEYDYWGQGTQVTVSS | low polyreactivity
9 | QVQLVESGGRLVQAGGSLRLSCAASGSIIVYNTMGWYRQAPGKERELVAAITVRDDSTYYADSVKGRFTISRDNAKNTVYLQMNSLKPEDTAVYYCNARGNFLIGRDYWGQGTQVTVSS | low polyreactivity
10 | QVQLVESGGGLVQAGGSLRLSCAASGSIFAAYTMGWYRQAPGKERVFVAAITYTGGSTYYADSVKGRFTISRDNAKNTVYLQMNSLKPEDTAVYYCAARGRLCQGYYYWGQGTQVTVSS | low polyreactivity
11 | QVQLVESGGGLVQAGGSLRLSCAASGFTGGRYAMGWYRQEPGKERELVDDISWSGGGTYYADSVKGRFTISRDNAKNTVYLQMNSLKPEDTAVYYCAAYWYRSYKRYGYWGQGTQVTVSS | high polyreactivity
12 | QVQLVESGGGLVQAGGSLRLSCAASGSNYYVYPMGWYRQAPGKERELVATISTGGSTYYADSVKGRFTISRDNAKNTVYLQMNSLKPEDTAVYYCNAQITPRYWGGYDSWGQGTQVTVSS | low polyreactivity
13 | QVQLQESGGGMVQAGGSLRLSCAASGSIFVSVTMGWYRQAPGKERELVASIGRGSTTNHADSVKGLFTISRDNAKNIVYLLMNSLKPEDTAVYYCAALESYAKYHGYWGQGTQVTVSS | low polyreactivity
14 | QVQLVESGGGLVQAGGSLRLSCAASGITISYYAMGWYRQAPGKERELVAAISFSGARTYYADSVKGRFTISRDNAKNTVYLQMNSLKPEDTAVYYCNAVSGIVQRYDYWGQGTQVTVSS | high polyreactivity
15 | QVQLLESGGGLVQAGGSLRLSCAATGRIFFYGMGWYRQAPGNETELVATITSVSNTYYADSVKGRFTISRDNAKNTGYLLMNSLKPEDTAVYYCAARPDRYRYRYGYWGQGTQVTVSS | high polyreactivity
16 | QVQLVESGGGLVQAGGSLRLSCAASGRIFAPYAMGWYRQAPGKERELVAGISIGGSTYYADSVKGRFTISRDNAKNTVYLQMNSLKPEDTAVYYCAALYNFWYSTYYYWGQGTQVTVSS | high polyreactivity
17 | QVQLVESGGGLVQAGGSLRLSCAASGSTFPYYAMGWYRQAPGKEREFVAAISSSGGSTYYADSVKWRFTISRDNAKNTVYLQMNSLKPEDTAVYYCAAQGARRNYYRYGTYTNRRYDYWGQGTQVTVSS | high polyreactivity
18 | QVQLVESGGGLVQAGGSLRLSCAASGLTFADYAMGWYRQAPGKERELVAAISRRGGSTYYADSVKGRFTISRDNAKNTVYLQMNSLKPEDTAVYYCAAYAYDVAFKRYKFDYWGQGTQVTVSS | high polyreactivity
19 | QVQLVESGGGLVQAGGSLRLSCAASGFIFKFNAMGWYRQAPGKERELVAAINYSAGSTYYADSVKGRFTISRDNAKNTVYLKMNSLKPEDTAVYYCNALYTYGWYSDDYWGQGTQVTVSS | high polyreactivity
20 | QVQLVESGGGLVQAGGSLRLSCAASGRTFIHYAMVWYRQAPGKERELVAAISRRGGSTYYADSVKGRFTISRDNAKNTVYLQMNSLKPEDTAVYYCAKATTTREPKYGYWGQGTQVTVSS | high polyreactivity
21 | QVQLVESGGGLVQAGGSLRLSCAASGLIYYRNAMGWYRQAPGKERELVAAISSDGSTYYADSVKGRFTISRDNPKNTVYLQMNSLKAEDTAVFYCAADYREFDAYGAARTLDFDYWGQGTQVTVSS | low polyreactivity
22 | QVQLVESGGGLVQAGGSLRLSFAASGGIFRLYAMGWYRQAPGKERELVAAINGGGSTNYADSVKGRFTISRDNAKNTVYLQMNSLKPEDTAVYYCNAVQYYRFQVYEYDYWGQGTQVTVSS | high polyreactivity

Row | Sequence | polyreactivity (PSR sort gate)
23 | QLQLAESGGGLVQAGGSLRLSCAASGSTFEINAMGWYRQAPWKERELVAAISKRGGNTYYADSVKGRFTISRDNAKNTVYLQMNSLKPEVTAVYYCSADSDSHYFFYVRWVGERYEYWGQGTQVTVSS | high polyreactivity
24 | QVQLVESGGGLVQAGGSLRLSCAASGFTFSAYAIGWYRQAPGKETELVAAITLRGGSTYYADSVKGRFTISRDNAKNTVYLQMNSLNPEDTAVYYCAAERIYVAYDYWGQGTQLTVSS | low polyreactivity
25 | QVQLVESGGCLVQAGGSLRLIWDASGSIFKRYAMGWYRQAPGKERELVAAISYSGGSTYYADSVKGRFTISRDNAKNTVYLQMNSLKPEDTAVYYCAKRSTSRGYDYWGQGTQVTLSS | high polyreactivity
26 | QDQLVESGGGLVQAGGSLRLSCAASGSTFPRYAMGWSRQAPGKERELVAAISSSGRTYYADSVKGRFTISRDNEKNTVYLQMNSLKPEDTAVYYCNAYPVFRSYDYWGQGTQVTVSS | high polyreactivity
27 | QVQLGESGGGLFQAGGSLRLSCAASGRTFVTYAMVWYRQAPGKERELVAAISKRGSRTYYADSVKGRFTISRDNAKNTVYLQMNTLKPEDTAVYYCAVVYSIYTRGYDYWGQGTQVTVSS | high polyreactivity
28 | QVQLVESGVGLVQAGGSLRLSSAASGSISYSYAMGWYRQAPGKERELVAAITWVGDSTYYADSVKGRFTISRDNAKNTVYLQMNRQKPEDTAVYYCAADLRFTYPVYRHGGGYDYWGQGTQVTVSS | low polyreactivity
29 | QVQLVESGGGLVQAGGSLRLSCAASGFTFTYNAMGWYRQAPGKERELVAAITANGGGTNYADSVKGRFTISRDNAKNTVYLQMNSLKPEDTAVYYCAATIVVAVFESLVFYWYTEDNYWGQGTQVTVSS | low polyreactivity
30 | QFQLVESVRGLFQAGGSLRLSCAASGSIFHPYGMGWYREDPVKERELVAAISSSGGDTYYADSVKGRFTISRDNAKNTVYLQMNSLKPEDTAVYYCATDHLDSYSVPGIGKHDYWGQGTQVTVSS | low polyreactivity
31 | QVQLVESGGGLVHAGGSLRLSCAASGFTCPYYPMGWYRQAPGKERELVDVISRSGGSTYYADSVKGRFTISRDNAKNTVYLQMNSLKPEDTAVYYCAKRYSLTGGKRTGYYWGQGTQVTVSS | high polyreactivity
32 | QVQLVESVVGLVQEGGSLRLSCAASGRIFAWYAMGWYRQAPGKERELVAAISDSGGSTYYADSVKGRFTISRDNAKNTVYLQMNSLKPEDTAVYYCAAQYVIRITFYATYWDDYWGQGTQVTVSS | low polyreactivity
33 | QVQLVESGGGLVQAGGSLRLSCAASGSIFRRNTMGWSRQATGKERELVAAITYRGGSTYYADSVKGRFTISRDNAKNTDYLQMNSLKPEESAVYYCARYLWYYRVSKSDSWGQGTQVTVSS | high polyreactivity
34 | QVQLVESGGGLVQAGGSLRLSCAASGSTFRIYAMGWYRQAPGKERELVAAISRSGGSTYYADSVKGRFTISRDNAKNTVYLQMNSLKPEDTAVYYCAAQPSYRYYKSYDYWGQGTQVTVSS | high polyreactivity
35 | QVQLVESAGGLVQAGGSLRLSCSAYGIIFSRYAMGWYRQAHGKERELVAAITSGGSTSYADSVKGRFTISRDNAKNTVYLQMNSLKPADTAVYYCAAQFFYRKSGTWAVYRYNYWGQGTQVTVSS | high polyreactivity
36 | QVQLVESGGGLVQAGGSLRLSCAASGRIFKQYAMGWYRQAPGKEREFVAAISSRGTRTYYADSVKGRFTISRDNAKNTVYLQMISLKPEDTAVYYCNAVQAQAAYEYWGQGTQVTVSS | high polyreactivity
37 | QVQLVESGGGLVQAGGSLRLSSAASGSIFGYAMGCDRHAPGKERELVASTTYADSVKGRFTISRDNAKNTVYLQMNSLKPEDTAVYYCAAEDRPLYWRFPDEMDYWGQGTQVTVSS | low polyreactivity
38 | QVQLVESGGGLVQAGGSLRLSCAASGRIFGPYTMAWYRQAPRKERELVAAISRRGGSTYYADSVKGRFTISRDNAKNTVYLQMTSLKPEDTAVYYCAAKIYFLAILYDYWGQGTQVTVSS | high polyreactivity
39 | QVQLVESGGGLVQAGGSLRLSCAASGRIFSFNAMGWYRPAPGKERELVATISWNGDSTYADSVKGRFTISRDNAKNTVYLQMNSLKPEDTAVYYCAVDVPPWDYDYWGQGTQVTVSS | low polyreactivity
40 | QVQLVESGGGLVQAGGSLRLSCAASGSTFDANAMGWYRQAPGKERELVAAISYSDGTTYYADSVKGRFTISRDNAKNTVYLQMNSLKPEDTAVYYCAAELFTYDGEEDYWGQGTQVTVSS | high polyreactivity
41 | QVQLVESGGGLVQAGGSLRLSCAASGSTFKRNAMGWYRQAPGKERELVAAITSGGSTYYADSVKGRFTISRDNAKNTVYLQMNSLKPEDTAVYYCNKVRGAFYSHLFDYWGQGTQVTVSS | high polyreactivity
42 | QVQLVESGGGLVQAGGSLRLSCAASGSIFEGYSMGWYRQAPAKERELVARITSDDDSTYYADSVKGRFTISRDNAKNTVYLQMNSLKPEDSAVYYCNADYYWTSLAMDSWGQGTQVTVSS | low polyreactivity
43 | QVQLVESGGGLVQAGGSLRLSWAASGSTFYPYAMGWYRPAPGKERELVAAISSSSSTNYADSVKGRFTISRDNAKNTVYLQMNSLKPEDTAVYYCAVTRVIESKQIRYDYWGQGTQVTVSS | low polyreactivity
